Results reported in US20060257938A1, “Method of screening for drugs that block ligand binding to a lipid binding protein” (priority 2005, published 2006).
Where “and” joins values, the source holds several entries; their conditions need not be identical. Equal values may be shown once.

What was measured:
Format in all cases: binding
[1] = Probe fluorescence ratio response to arachidonic acid relative to ADIFAB2; conditions: arachidonic acid; response relative to ADIFAB2
In short: (§1)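 Each fatty acid's response was expressed relative to ADIFAB2, the rI-FABP-L72A probe, as ΔR/ΔRreference. ΔR is the change in the background-corrected two-wavelength intensity ratio R=Fλ1/Fλ2 from its analyte-free baseline R0. Emission was read near about 420-480 nm for unbound and about 495-580 nm for FFA-bound probe.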

[2] = Probe fluorescence ratio response to linolenic acid relative to ADIFAB2; conditions: response relative to ADIFAB2
In short: as §1

[3] = Probe fluorescence ratio response to linoleic acid relative to ADIFAB2; conditions: response relative to ADIFAB2
In short: as §1

[4] = Probe fluorescence ratio response to oleic acid relative to ADIFAB2; conditions: response relative to ADIFAB2
In short: as §1

[5] = Probe fluorescence ratio response to palmitic acid relative to ADIFAB2; conditions: response relative to ADIFAB2
In short: as §1

Row | Molecule | DR/DR AA [1] | DR/DR LNA [2] | DR/DR LA [3] | DR/DR OA [4] | DR/DR PA [5]
1 | 106S2, 72A (protein, listed as Rattus norvegicus, PEPTIDE (1)...(131) wild-type rat intestinal fatty acid binding protein) AFDGTWKVDRNENYEKFMEKMGINVVKRKLGAHDNLKLTITQEGNKFTVKESSNFRNIDVVFELGVDFAYSAADGTELTGTWTMEGNKLVGKFKRVDNGKELIAVSEISGNELIQTYTYEGVEAKRIFKKE | 0.32 | 0.40 | 0.36 | 0.48 | 0.15
2 | 115A1, 72A (protein, listed as Rattus norvegicus, PEPTIDE (1)...(131) wild-type rat intestinal fatty acid binding protein) AFDGTWKVDRNENYEKFMEKMGINVVKRKLGAHDNLKLTITQEGNKFTVKESSNFRNIDVVFELGVDFAYSAADGTELTGTWTMEGNKLVGKFKRVDNGKELIAVREISGNELIATYTYEGVEAKRIFKKE | 1.17 | 1.26 | 1.22 | 1.20 | 1.11
3 | 106Y1, 72A (protein, listed as Rattus norvegicus, PEPTIDE (1)...(131) wild-type rat intestinal fatty acid binding protein) AFDGTWKVDRNENYEKFMEKMGINVVKRKLGAHDNLKLTITQEGNKFTVKESSNFRNIDVVFELGVDFAYSAADGTELTGTWTMEGNKLVGKFKRVDNGKELIAVYEISGNELIQTYTYEGVEAKRIFKKE | 0.57 | 0.60 | 0.61 | 0.60 | 0.27
4 | 113M, 72A (protein, listed as Rattus norvegicus, PEPTIDE (1)...(131) wild-type rat intestinal fatty acid binding protein) AFDGTWKVDRNENYEKFMEKMGINVVKRKLGAHDNLKLTITQEGNKFTVKESSNFRNIDVVFELGVDFAYSAADGTELTGTWTMEGNKLVGKFKRVDNGKELIAVREISGNEMIQTYTYEGVEAKRIFKKE | 1.33 | 1.38 | 1.46 | 1.42 | 1.19
5 | 115F1, 72A (protein, listed as Rattus norvegicus, PEPTIDE (1)...(131) wild-type rat intestinal fatty acid binding protein) AFDGTWKVDRNENYEKFMEKMGINVVKRKLGAHDNLKLTITQEGNKFTVKESSNFRNIDVVFELGVDFAYSAADGTELTGTWTMEGNKLVGKFKRVDNGKELIAVREISGNELIFTYTYEGVEAKRIFKKE | 1.36 | 1.49 | 1.46 | 1.41 | 0.77
6 | 106V1, 72A (protein, listed as Rattus norvegicus, PEPTIDE (1)...(131) wild-type rat intestinal fatty acid binding protein) AFDGTWKVDRNENYEKFMEKMGINVVKRKLGAHDNLKLTITQEGNKFTVKESSNFRNIDVVFELGVDFAYSAADGTELTGTWTMEGNKLVGKFKRVDNGKELIAVVEISGNELIQTYTYEGVEAKRIFKKE | 0.61 | 0.82 | 0.82 | 0.84 | 0.32
7 | 115I3, 72A (protein, listed as Rattus norvegicus, PEPTIDE (1)...(131) wild-type rat intestinal fatty acid binding protein) AFDGTWKVDRNENYEKFMEKMGINVVKRKLGAHDNLKLTITQEGNKFTVKESSNFRNIDVVFELGVDFAYSAADGTELTGTWTMEGNKLVGKFKRVDNGKELIAVREISGNELIITYTYEGVEAKRIFKKE | 0.87 | 0.80 | 0.81 | 0.88 | 0.84
8 | 106W, 72A (protein, listed as Rattus norvegicus, PEPTIDE (1)...(131) wild-type rat intestinal fatty acid binding protein) AFDGTWKVDRNENYEKFMEKMGINVVKRKLGAHDNLKLTITQEGNKFTVKESSNFRNIDVVFELGVDFAYSAADGTELTGTWTMEGNKLVGKFKRVDNGKELIAVWEISGNELIQTYTYEGVEAKRIFKKE | 1.11 and 1.106 | 1.03 | 1.04 and 1.042 | 0.99 and 0.991 | 0.41 and 0.407
9 | 115E1, 72A (protein, listed as Rattus norvegicus, PEPTIDE (1)...(131) wild-type rat intestinal fatty acid binding protein) AFDGTWKVDRNENYEKFMEKMGINVVKRKLGAHDNLKLTITQEGNKFTVKESSNFRNIDVVFELGVDFAYSAADGTELTGTWTMEGNKLVGKFKRVDNGKELIAVREISGNELIETYTYEGVEAKRIFKKE | 0.12 | 0.10 | 0.15 | 0.10 | 0.08
10 | 115H1, 72A (protein, listed as Rattus norvegicus, PEPTIDE (1)...(131) wild-type rat intestinal fatty acid binding protein) AFDGTWKVDRNENYEKFMEKMGINVVKRKLGAHDNLKLTITQEGNKFTVKESSNFRNIDVVFELGVDFAYSAADGTELTGTWTMEGNKLVGKFKRVDNGKELIAVREISGNELIHTYTYEGVEAKRIFKKE | 0.89 | 0.70 | 0.74 | 0.68 | 0.51
11 | 115D1, 72A (protein, listed as Rattus norvegicus, PEPTIDE (1)...(131) wild-type rat intestinal fatty acid binding protein) AFDGTWKVDRNENYEKFMEKMGINVVKRKLGAHDNLKLTITQEGNKFTVKESSNFRNIDVVFELGVDFAYSAADGTELTGTWTMEGNKLVGKFKRVDNGKELIAVREISGNELIDTYTYEGVEAKRIFKKE | 1.17 | 1.20 | 1.19 | 1.21 | 1.14
12 | 102A, 72A (protein, listed as Rattus norvegicus, PEPTIDE (1)...(131) wild-type rat intestinal fatty acid binding protein) AFDGTWKVDRNENYEKFMEKMGINVVKRKLGAHDNLKLTITQEGNKFTVKESSNFRNIDVVFELGVDFAYSAADGTELTGTWTMEGNKLVGKFKRVDNGKEAIAVREISGNELIQTYTYEGVEAKRIFKKE | 0.45 | 0.44 | 0.35 | 0.52 | 0.20
13 | 106T2, 72A (protein, listed as Rattus norvegicus, PEPTIDE (1)...(131) wild-type rat intestinal fatty acid binding protein) AFDGTWKVDRNENYEKFMEKMGINVVKRKLGAHDNLKLTITQEGNKFTVKESSNFRNIDVVFELGVDFAYSAADGTELTGTWTMEGNKLVGKFKRVDNGKELIAVTEISGNELIQTYTYEGVEAKRIFKKE | 0.43 | 0.58 | 0.47 | 0.53 | 0.23
